Test results as given in patent US20050100989A1 (MERCK SERONO, published 2005).
Several values for one entry are separate records, joined by “and”; a condition that tells them apart may be missing. Equal values may be shown once.

T1: human FSH receptor (human, UniProt P23945 18-695)
T1 construct: whole, on cells
T1 sequence (looked up): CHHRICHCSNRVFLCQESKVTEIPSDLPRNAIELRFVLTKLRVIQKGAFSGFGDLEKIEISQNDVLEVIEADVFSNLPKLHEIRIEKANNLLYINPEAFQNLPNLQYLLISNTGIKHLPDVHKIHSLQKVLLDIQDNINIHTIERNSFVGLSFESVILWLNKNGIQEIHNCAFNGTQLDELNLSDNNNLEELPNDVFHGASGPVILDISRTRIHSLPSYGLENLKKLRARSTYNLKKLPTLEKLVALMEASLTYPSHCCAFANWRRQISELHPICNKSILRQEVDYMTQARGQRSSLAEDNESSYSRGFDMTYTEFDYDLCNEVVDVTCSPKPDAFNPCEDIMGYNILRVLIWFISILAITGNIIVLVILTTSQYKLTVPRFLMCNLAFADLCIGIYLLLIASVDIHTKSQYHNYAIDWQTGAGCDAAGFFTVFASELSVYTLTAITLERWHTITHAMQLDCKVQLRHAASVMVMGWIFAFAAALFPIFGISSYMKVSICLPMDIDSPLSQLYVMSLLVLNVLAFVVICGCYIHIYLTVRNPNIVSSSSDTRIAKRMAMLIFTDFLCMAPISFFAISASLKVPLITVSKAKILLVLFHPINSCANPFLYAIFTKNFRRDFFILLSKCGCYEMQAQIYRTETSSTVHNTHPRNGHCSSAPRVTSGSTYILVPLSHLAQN


How the values were obtained:
[1] = target: T1, human FSH receptor; assay: competition with 125I radiolabelled FSH on membrane preparations with human FSH receptor
[2] = target: T1, human FSH receptor; assay: cell-based or functional assay
[3] = target: T1, human FSH receptor; assay: competition with 0.4 nM 125I-FSH on CHO membranes bearing human FSHR, filtration, single site model
Experimental: Large batches of CHO cells line which recombinantly express human FSH receptor or human LH receptor were grown and disrupted by nitrogen cavitation (20 min equilibration to 900 psi, followed by rapid pressure release) in 0.025 M Tris pH 7.4 containing 0.25 M sucrose, 10 mM MgCl₂, 1 mM EDTA and one part per thousand Sigma Protease Inhibitor cocktail (p8350). Following preliminary clarification (10 min×1000×g at 4° C.) the membranes fraction was pelletted (60 min×100,000×g×4° C.) by ultracentrifugation. The membranes fraction was resuspended in binding buffer (0.01 M Tris pH 7.4 containing 5 mM MgCl₂), protein concentration estimated by Bradford (BioRad) protein assay and stored frozen at −80° C. for future use. Typically 15 μg of membrane protein appropriately bearing FSHR or LHR was analyzed, per well, in competition assays.
Radioligand binding was evaluated in 96 well plates, 100 μl/sample well. The assay buffer was 0.01 M Tris pH 7.4 containing 5 mM MgCl₂ and 0.1% BSA and 0.3 nM ¹²⁵I-hCG (for LHR) or 0.4 nM ¹²⁵I-FSH (for FSHR). […] Nonspecific binding was determined in the presence of 500 nM unlabeled hCG or FSH. Binding was allowed to equilibrate for 90 min at 37° C. with shaking. […] Bound radioactivity was measured in an HP Cobra II gamma counter using a pre-programmed detection window specific for ¹²⁵I emission. Data were analyzed using a single site model and Graph Pad Prizm software.

[4] = target: T1, human FSH receptor; assay: cell-based or functional assay; remark: listed apart in the source

Binder | Ki [1] [nM] | EC50 (FSHR-coupled cAMP production) [2] [nM] | Ki [3] | FSHR EC50 (cAMP production) [4]
FSH single β-subunit mutant β E55N/V57T (mutant β-subunit expressed together with the complementary wild type α-subunit) (ligand, N-linked glycosylation; extra consensus site at N55 (hyperglycosylated by shift of apparent molecular weight); N-linked glycosylation (glycoprotein made in CHO cells), also called βE55/V57T) chain 1: not shown chain 2: NSCELTNITIAIEKEECRFCISINTTWCAGYCYTRDLVYKDPARPKIQKTCTFKNLTYETVRVPGCAHHADSLYTYPVATQCHCGKCDSDSTDCTVRGLGPSYCSFGEMKE | 0.86 | 0.039 |  | 
GM-1 (FSH double glycosylation mutant: α-subunit H83N and β-subunit E55N/V57T) (ligand, N-linked glycosylation (glycoprotein made in CHO-Dukx cells), Heterodimer; also called GM-1 Lot 1; GM-1 Lot 2) chain 1: not shown chain 2: NSCELTNITIAIEKEECRFCISINTTWCAGYCYTRDLVYKDPARPKIQKTCTFKNLTYETVRVPGCAHHADSLYTYPVATQCHCGKCDSDSTDCTVRGLGPSYCSFGEMKE |  |  | 1.9 nM and 2.3 nM | 0.0612 nM and 0.0209 nM
